# According to publication PMC9521807:
# Target: OsRMC-His (rice (Oryza sativa))
# Assay: BLI
substance,measurement,value
MoCel6A (analyte of the binding kinetics) (enzyme),Kd,0.0219 µM
same,koff,0.000845 s⁻¹
same,kon,38900 M⁻¹ s⁻¹
